Substrate: O=C1Oc2cc(O)ccc2/C1=C\c1ccc(O)cc1
Conditions: Bos taurus
Description: Activity at calf thymus gland topoisomerase 1 assessed as conversion of supercoiled pBR322 DNA to relaxed form by Lineweaver-Burke plot

B1: DNA topoisomerase (Bos taurus), A0JN73 (protein)
chain: MIFPAAHRALRGLPRPGTRALTRAAMEVALRGVRKILCVAEKNDAAKGIADLLSGGRMRRREGLSRFNKIYEFDYHLCGQNVTMVMTSVSGHLLAHDFRMQFRKWQSCNPLVLFEAEIEKYCPENFVDIKKTLEREAQQCQALVIWTDCDREGENIGFEVIHVCKAVKPSLQVLRARFSEITTRAVRTACENLTEPDQRVSDAVDVRQELDLRIGAAFTRFQTLRLQKIFPEVLAEQLISYGSCQFPTLGFVVERFKAIQAFVPEVFHKIRVTHDHRDGVVEFSWKRHRLFNHTACLVLYQMCMEDPRAMVVEVRSKAKSKWRPQALDTVELEKLASRKLRINAKETMRIAEKLYTQGYISYPRTETNIFPKDLDLAALVEQQTPDPRWGAFARNILERGGPTPRNGNKSDQAHPPIHPTKYTDSLQGDEQRLYELIVRHFLACCSQDAQGQETTVEIDIAQERFVAHGLMILARNYLDVYPYDRWSDKTLPVYEQGTCFQPSTVEMVDGETSPPQLLTEADLIALMEKHGIGTDATHAEHIETIKARMYVGLTPDKRFLPGHLGMGLVEGYDSMGYEMSKPDLRAELEADLKLICEGKKDKLVVLHQQVQKYKQVFIEAVAKARKLDEALSQYFGAATEVAPQDALPAVPEPIRKCPQCSRDMVLKTRKSGGFYLGCTGFPECRSAVWFPDSVLEASRDVSVCPVCQPHPVYRLKFKFKRGSLPPTMPLEFVGCIGGCDETLREILALRFSQGAARVSQPASQTSGYLQASQSLNRMDSGQQGQPRPPVTRPSKALTRTLPPPAVESESNSVTCNCGQEALLLTVRKEGPNQGRQFYKCGSGGCSFFLWADSGHPGAGPPSSASRPPGGPLEHPPGSGTLLGGSSRPGSGGSGGASCLCGQPAVTRTVQKEGPNQGRQFHTCAQPREHQCGFFQWVDENVAPGTFGGPLWPGSRRGTQGLEARSKRPRAGSSDTGSATKKPRKCSLCHQPGHTRPFCPQNR
With B1 as the protein, how does the Km read?
The Km was 0.0111 µM.

From ChEMBL document CHEMBL1155708, “Isoaurostatin, a novel topoisomerase inhibitor produced by Thermomonospora alba” (J Nat Prod, 2001)
